{"source": "paper PMC10689437", "biological_target": "SARS-CoV-2 non-structural protein 3 (nsp3), released from the expressed HA-nsp3-4-V5 polyprotein (SARS-CoV-2)", "experiment": "cryo-EM structure"}
{"substance": "SARS-CoV-2 non-structural protein 3 (nsp3), released from the expressed HA-nsp3-4-V5 polyprotein (natural protein)", "values": [{"measurement": "stoichiometry N", "result": 6}]}
